The conditions of data set [1]: in vitro skin permeation; cited from earlier work.
For data set [2] the following is noted: in vitro and in vivo studies; cited from earlier work.
Data set [3] is described as follows: Circular dichroism in varying trifluoroethanol concentrations, PTH analogs. It is filed as physicochemical. Details: [θ]222 (mean residue ellipticity): unit not given here. Particulars: for [θ]222 (mean residue ellipticity): pH 6.5 10 mM cacodylate, 20° C; for helicity: 30% (v/v) TFE. Here is the method: The trifluoroethanol (TFE) circular dichroism studies were done using an AVIV Associates, Inc. Model 62DS Circular Dichroism Spectrometer. Protein concentrations were determined from absorbance readings using calculated extinction coefficients for the analogs in 10 mM ionic buffer. TFE titrations were done from 0 to 50% TFE, scanning from 250 to 200 nm at 20° C. for each TFE sample.
On the technique in general: Circular dichroism is the unequal absorption of left and right circularly polarised light.

A short description of data set [4]: In vitro electrotransport flux of the PTH analogs. Conditions: retro-inverso versions, 1 mM, pH 5.0, 0.1 mA/cm^2, 32° C, BSA/Tween 20 receptor.
In data set [5] the test system is PTH receptor (rat osteosarcoma cell line UMR106). In words: adenylate cyclase stimulation / cAMP in UMR106 cells (PTH receptor activation). Format: cell-based. Particulars: for EC50: cAMP, 5 minutes, 1 mM IBMX, read-out: EC-50 (effective concentration). Here is the method: The peptide was then desalted and partially purified on a SepPak column. Individual peaks were isolated and analyzed by electrospray mass spectrometry to determine the composition.
PTH concentrations were determined by OD280 using an extinction coefficient of 6600 for the recombinant peptide and 5500 for the synthetic peptide. […] Activation of the PTH receptor leads to an intracellular rise in cAMP concentration.
The UMR106 cells were seeded at about 2.5×10^5 per well in a 48 well dish and allowed to grow to confluence. Assays were performed on cells 3-5 days postconfluence. The media (Dulbecco's modified Eagle's medium, DMEM, with fetal calf serum) was removed, and 1 mL of fresh media was applied. PTH (recombinant or synthetic) at various concentrations and 3-isobutyl-1-methyl xanthine (IBMX) at 1 mM final concentration were then added to each well of the plate, which was then incubated for 5 minutes at room temperature. The media was then removed and the cells quickly washed with ice cold PBS. The cells were then extracted twice with 1 mL of absolute ethanol. The two extractions were combined and the ethanol removed by evaporation. The extract was then redissolved in 1 mL of scintillation proximity buffer (SPA buffer) (Amersham, Arlington Heights, Ill.). The cAMP concentration was determined by assay using a scintillation proximity assay (SPA) kit available from Amersham.

The nature of data set [6]: Stability when incubated with stripped stratum corneum. Format: in vitro ADME, human.
Data set [7] addresses T1, PTH receptor (rat, UniProt P25961).
Target sequence in this assay (P25961 27-591): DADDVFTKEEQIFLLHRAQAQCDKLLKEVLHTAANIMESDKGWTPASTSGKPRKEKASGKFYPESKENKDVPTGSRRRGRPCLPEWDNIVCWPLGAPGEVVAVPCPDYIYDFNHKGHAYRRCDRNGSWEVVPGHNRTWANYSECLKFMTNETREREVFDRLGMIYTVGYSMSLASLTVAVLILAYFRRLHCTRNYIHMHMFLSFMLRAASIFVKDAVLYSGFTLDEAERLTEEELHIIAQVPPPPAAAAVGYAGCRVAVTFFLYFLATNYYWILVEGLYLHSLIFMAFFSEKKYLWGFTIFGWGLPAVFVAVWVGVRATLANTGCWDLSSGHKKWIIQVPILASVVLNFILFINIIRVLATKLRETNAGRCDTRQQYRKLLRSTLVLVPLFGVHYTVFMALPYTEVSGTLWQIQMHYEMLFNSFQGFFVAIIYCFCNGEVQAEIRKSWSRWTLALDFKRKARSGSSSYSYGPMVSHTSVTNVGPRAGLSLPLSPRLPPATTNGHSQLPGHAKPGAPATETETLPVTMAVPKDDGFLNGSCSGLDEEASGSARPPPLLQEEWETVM
Data set [8] deals with T1, PTH receptor. In words: Kd reported in the PTH analog activity assay on UMR106 cells; the method used for the Kd is not described.
For another data set, the target named is PTH receptor (rat) (UniProt P25961).

What is called Kd is the constant that tells how readily two partners part at equilibrium.

Ends that are not written are not given here.

Sequence of PTH receptor (rat) (P25961 27-591): as above

In the case of `NC(=O)[C@@H]1CCCN1C(=O)[C@H](Cc1cnc[nH]1)NC(=O)[C@@H]1CCC(=O)N1` [thyrotropin releasing hormone], in [1], the “electrotransport flux compared with passive diffusional flux” value is reported as “higher than passive diffusional flux”.

Consider `NC(=O)CC[C@@H]1NC(=O)[C@H](Cc2ccccc2)NC(=O)[C@H](Cc2ccc(O)cc2)NC(=O)[C@@H](N)CSSC[C@@H](C(=O)N2CCC[C@H]2C(=O)N[C@@H](CCCN=C(N)N)C(=O)NCC(N)=O)NC(=O)[C@H](CC(N)=O)NC1=O` [vasopressin], for which, in [2], the “transdermal delivery via electrotransport” value is listed as “possible”.

Take “PTH analog 1: FIG. 1B (SEQ ID NO:7): Met8Leu, Leu15Arg, Met18Leu, Glu19Arg, Glu22Arg, Gln29Lys, Phe34Tyr, homoserine lactone at the C-terminus”: the “[θ]222 (mean residue ellipticity)” value in data set [3] (0% TFE) is on record as -4205; in data set [3] (10% TFE) it was -9333; in data set [3] (20% TFE) it was -23098; in data set [3] (30% TFE) it was -26334; in data set [3] (40% TFE), -27580; in data set [3] (50% TFE), -27705. The helicity entry in [3] is reported as “about 80%”. Besides, the “median mass flux (95% confidence interval)” value in data set [4] (95% CI: analog 1 0.1 to 0.7, analog 2 2.1 to 4.2) is on record as 0.3 μg cm^-2 h^-1. Further, the “average mass flux ± sd” value in data set [4] (sd: analog 1 ±2.3, analog 2 ±3.7) is given as 1.4 μg cm^-2 h^-1. Also, the EC50 in data set [5] (UMR106 cells) came out at 0.9 nM. Besides, in data set [6], the “stability when incubated with stripped stratum corneum” value is on record as “not stable”.

For the molecule “PTH analog 3: amino acid sequence of FIG. 1D (SEQ ID NO:9); recombinantly synthesized (SVSEIQLMHNLGKHLNSMERPEWLRKKPQDVHNF)”, the “[θ]222 (mean residue ellipticity)” value in [3] (0% TFE) is -3867; in [3] (10% TFE), -6479; in [3] (20% TFE), -12329; in [3] (30% TFE), -15161; in data set [3] (40% TFE), -15191; in data set [3] (50% TFE), -15395. For the same molecule, the helicity entry in data set [3] is listed as “about 15%”. The “helix in the absence of the helix-inducing TFE (in words)” value in data set [3] (no TFE) is “essentially devoid of helix”. For the same molecule, in data set [5] (UMR106 cells), the “activity (ability to stimulate adenylate cyclase)” value was “no measurable activity”.

In the data set with PTH receptor [7], “Synthetic PTH having the wild-type sequence (ligand)” had a stimulation of adenylate cyclase (intracellular cAMP, scintillation proximity assay) in UMR106 cells of 4.4 nM.

Regarding “Wild-type PTH: wild-type, parent PTH polypeptide, FIG. 1A (SEQ ID NO:6), 34 amino acid residues [reference compound]”, the EC50 in data set [5] (UMR106 cells) stood at 4.4 nM.

“insulin: insulin, cited electrotransport study”: the “transdermal delivery via electrotransport” value in data set [2] is “possible”.

Regarding SVSEIQLLHNLGKHRNSLRRVRWLRKKLKDVHNY-{HSL} (ligand) [PTH analog 1 (1-35)], the Kd in the data set with PTH receptor [8] amounted to 1.5 nM. In the data set with PTH receptor (rat), this molecule gave a stimulation of adenylate cyclase (intracellular cAMP, scintillation proximity assay) in UMR106 cells of 0.9 nM.

B1: RPTH: recombinant PTH (RPTH), HPLC purified or crude Sep-Pak purified (peptide, UniProt P01270 32-115, looked up)
Parathyroid hormone: SVSEIQLMHNLGKHLNSMERVEWLRKKLQDVHNFVALGAPLAPRDAGSQRPRKKEDNVLVESHEKSLGEADKADVNVLTKAKSQ
For B1, in data set [5] (crude Sep-Pak purified sample compared with HPLC purified RPTH), the “adenylate cyclase stimulatory ability, crude Sep-Pak purified vs HPLC purified” value is given as “no significant difference in adenylate cyclase stimulatory ability”.

Values taken from patent US6333189A, “Method of making an electrotransport device” (ALZA Corporation, priority 1997, dated 2001).
